Data published in US20250179196A1 (Janssen / Centocor, published 2025).

Columns and labels:
[1] = molecular target: T1, Recombinant human IL-23 receptor (IL-23R) extracellular domain (ECD) protein (human, UniProt Q5VWK5 24-355); assay: SPR Biacore 8K, supernatant, analysis 2
T1 construct: also called human IL-23R ECD; hu IL-23R ECD
T1 sequence: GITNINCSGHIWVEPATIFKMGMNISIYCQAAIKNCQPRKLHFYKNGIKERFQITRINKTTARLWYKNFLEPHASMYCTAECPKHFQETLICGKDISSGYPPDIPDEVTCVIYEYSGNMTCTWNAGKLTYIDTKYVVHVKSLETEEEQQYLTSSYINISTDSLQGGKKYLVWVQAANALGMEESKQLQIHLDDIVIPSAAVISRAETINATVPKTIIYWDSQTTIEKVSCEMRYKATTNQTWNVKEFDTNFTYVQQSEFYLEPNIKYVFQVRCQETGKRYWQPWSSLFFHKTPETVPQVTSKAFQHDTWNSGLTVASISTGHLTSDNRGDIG
Protocol: (§1) Affinity by SPR using Biacore 8K. Affinity measurements using Surface Plasmon Resonance (SPR) were performed using a Biacore 8K system (Cytiva). […] Approximately 9000-10000 RU (response units) of mAbs were immobilized. The kinetic experiments were performed at 25° C. in running buffer 1× of (HBS-P+ Buffer 10× (Cytiva #BR100671)+100 μg/ml BSA). To perform kinetic experiments, approximately 150 RU of mAbs were captured followed by injections of human IL-23R or rat IL-23R at concentrations ranging from 0.8 nM to 500 nM (in a 5-fold serial dilution). The association phase was monitored for 3 minutes at 50 μL/min, then followed by 30 minutes of buffer flow (dissociation phase). […] The collected data were processed using Biacore insight Evaluation software (Version 3.0.12.15655). The kinetic analysis of the data was performed using a Langmuir 1:1 binding model. The result for each mAb was reported in the format of Ka (On-rate), Kd (Off-rate) and KD (equilibrium dissociation constant).

[2] = molecular target: T1, Recombinant human IL-23 receptor …; assay: SPR Biacore 8K, supernatant, analysis 1
Protocol: as §1

[3] = molecular target: T2, rat IL-23R extracellular domain (ECD) protein (rat); assay: SPR Biacore 8K, supernatant
T2 construct: also called rat IL-23R ECD; F1LX96 amino acids 24-354
T2 chain: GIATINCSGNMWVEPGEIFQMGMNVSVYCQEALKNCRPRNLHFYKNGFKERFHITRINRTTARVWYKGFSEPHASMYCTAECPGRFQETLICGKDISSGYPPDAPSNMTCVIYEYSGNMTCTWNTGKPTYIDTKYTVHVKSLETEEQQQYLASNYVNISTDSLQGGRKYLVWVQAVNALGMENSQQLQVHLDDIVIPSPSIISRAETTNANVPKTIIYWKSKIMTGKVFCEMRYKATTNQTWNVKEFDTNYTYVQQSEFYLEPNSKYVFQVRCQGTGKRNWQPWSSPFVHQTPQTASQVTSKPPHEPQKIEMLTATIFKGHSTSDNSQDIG
Protocol: as §1

| Binder | Kd [1] | koff [1] | kon [1] | Kd [2] | koff [2] | kon [2] | Kd [3] | koff [3] | kon [3] | binding result [3] |
| --- | --- | --- | --- | --- | --- | --- | --- | --- | --- | --- |
| I23RB56 (antibody, mouse IgG2a, kappa, V domains shown, mouse immunization; mouse IgG2a/kappa) VH: EVKLVESGGGLVKPGGSLKLSCAASGFTFSSYAMSWVRQTPEKRLEWVAAINSNDGSTYYPDTVKDRFTISRDNAKNTLYLQMSSLRSEDTALYYCARHFLYFSNFYYFDYWGQGTTLTVSS VL: DIVMTQSPKFLLVSAGDRVTITCKASQSVSNDVAWYQQKPGQSPKLLIYYASNRYTGVPDRFTGSGYGTVFTFTISTVQAEDLAVYFCQQDYSSPFTFGSGTKLEIKR | 25.5 nM | 0.00898 s⁻¹ | 352000 M⁻¹ s⁻¹ | 68.4 nM | 0.0115 s⁻¹ | 168000 M⁻¹ s⁻¹ | 715 nM | 0.0642 s⁻¹ | 89700 M⁻¹ s⁻¹ | – |
| I23RB98 (antibody, mouse IgG2a, kappa, V domains shown, mouse immunization; mouse IgG2a/kappa) VH: EFQLQQSGPELVKPGASVKMSCKASGYTFTNYYMHWVKQSHGKTIEWIGYIYPNSGDTSYNQKFKGKATLTVDKSSSTAYMELRSLTSEDSAVYTCARFGGFYDAMDYWGQGTTVTVSS VL: DIVLTQSPAIMSASLGERVTMTCTASSSVSSSYLHWYQQKPGSSPKLWIYSTSNLASGVPARFSGSGSGTSYSLTISSMEAEDAATYYCHQYHRSPFTFGSGTKLEMKR | 25.8 nM | 0.0035 s⁻¹ | 136000 M⁻¹ s⁻¹ | 39.1 nM | 0.00294 s⁻¹ | 75100 M⁻¹ s⁻¹ | – | – | – | no binding (tested: 500 nM) |
| I23RB57 (antibody, mouse IgG2a, kappa, V domains shown, mouse immunization; mouse IgG2a/kappa) VH: EFQLQQSGPELVKPGASVKMSCKASGYTFTNYYMHWVKQSHGKTIEWIGYIYPNSGDTSYNQKFKGKATLTVDKSSSTAYMELRSLTSEDSAVYNCARFGGFYDAMDYWGQGTSVTVSS VL: DIVMTQSPAIMSASLGERVTMTCTASSSVSSSYLHWYQQKPGSSPKLWIYSTSNLASGVPARFSGSGSGTSYSLTISSMEAEDAATYYCHQYHRSPFTFGSGTKLEIKR | 38.1 nM | 0.00307 s⁻¹ | 80700 M⁻¹ s⁻¹ | 29.2 nM | 0.00299 s⁻¹ | 102000 M⁻¹ s⁻¹ | – | – | – | no binding (tested: 500 nM) |
| I23RB73 (antibody, mouse IgG2a, kappa, V domains shown, mouse immunization; mouse IgG2a/kappa) VH: EVQLQQSGAELVKPGASVKISCKASGYTFTDHAIHWVKQRPEQGLEWIGYISLGNGDIKYSEKFRGKATLTADKTSNTAYMQLNSLTSEDSAVYFCKRSRVLRWTTYWYFDVWGAGTSVTVSS VL: DIVMTQSHKFMSTSVGDRVSITCKASQDVSTAVAWYQQKPGQSPKLLIYWASTRLTGVPDRFTGSGSGTDYTLTISSVQAEDLALYYCQQYYNTPLTFGAGTKLELKR | 13.7 nM | 0.00293 s⁻¹ | 213000 M⁻¹ s⁻¹ | 11.7 nM | 0.00378 s⁻¹ | 322000 M⁻¹ s⁻¹ | – | – | – | no binding (tested: 500 nM) |
| I23RB77 (antibody, mouse IgG2a, kappa, V domains shown, mouse immunization; mouse IgG2a/kappa) VH: DVQLQESGPGLVAPSQSLSITCTVSGFSLSRYSVHWVRQPPGKGLEWLGMIWGSGSTDYNSALKSRLSINKDNSKSQVFLKMNSLQTDDTAMYYCARVYYGGSPYAMDYWGQGTTVTVSS VL: DIVMTQSPASLALSLGQRATISCRASESVDSYGNSFMHWYQQKPGQPPKLLIYLASNLESGVPARFSGSGSRTDFTLTIDPVEADDAAIYYCQQNNEEPNTFGAGTKLEMKR | 18 nM | 0.01 s⁻¹ | 556000 M⁻¹ s⁻¹ | 1.54 nM | 0.00214 s⁻¹ | 1.39e+06 M⁻¹ s⁻¹ | – | – | – | no binding (tested: 500 nM) |
| I23RB58 (antibody, mouse IgG2a, kappa, V domains shown, mouse immunization; mouse IgG2a/kappa) VH: EVKLVESGGGLVKPGGSLKLSCAASGFSFIIYTMSWVRQTPEKRLEWVAYITSGGGITYYPDSVKGRFTISRDNARNTLYLQMSSLRSEDTAMYYCARHEGDYYDDYYRIGYAMDYWGQGTSVTVSS VL: DIVMTQTPASLAVSLGQRATISCRASESVDSYGNSFMHWYQQKPGQPPKLLIYRASNLESGIPARFSGSGSRTDFTLTINPVEADDVATYYCQQSNEDPLTFGAGTKLEMKR | 22.5 nM | 0.00523 s⁻¹ | 233000 M⁻¹ s⁻¹ | 16.2 nM | 0.00532 s⁻¹ | 328000 M⁻¹ s⁻¹ | – | – | – | no binding (tested: 500 nM) |
| I23RB93 (antibody, mouse IgG2a, kappa, V domains shown, mouse immunization; mouse IgG2a/kappa) VH: QVQLKESGPGLVQPSQSLSITCTVSGFSLTSYGVHWVRQSPGKGLEWLGVIWSGVSTDYNAAFISRLSISKDNSKSQVFFKMNSLQADDTAIYYCARSRGSYYFDYWGQGTTLTVSS VL: DIKMTQSPATLSVTPGDSVSLFCRASQSISNNLHWYQQKSHESPRLLIKYASQSISGIPSRFSGSGSGTDFTLSINSVETEDFGMYFCQQSNSWPLTFGGGTKLEIKR | 2.9 nM | 0.00123 s⁻¹ | 423000 M⁻¹ s⁻¹ | 2.88 nM | 0.00138 s⁻¹ | 480000 M⁻¹ s⁻¹ | – | – | – | no binding (tested: 500 nM) |
| I23RB83 (antibody, mouse IgG2a, kappa, V domains shown, mouse immunization; mouse IgG2a/kappa) VH: DVQLQESGPGLVAPSQSLSITCTVSGFSLTNYDVHWVRQSPGKGLEWLGVIWSDGSTDYNAAFISRLSFSKDNSKRQVFFKMNSLQPDDTAIYYCARNNYYRYGRNPMDYWGQGTTVTVSS VL: DIQMTQSPASQSASLGESVTITCLASQTIGSWLAWYQQKPGKSPQLLIYAATSLADGVPSRFSGSGSGTKFSFKISSLQAEDFVSYYCQQLYSSPLTFGGGTKLEIKR | 0.345 nM | 5.91e-05 s⁻¹ | 172000 M⁻¹ s⁻¹ | 0.366 nM | 0.000119 s⁻¹ | 325000 M⁻¹ s⁻¹ | – | – | – | no binding (tested: 500 nM) |
| I23RB86 (antibody, mouse IgG2a, kappa, V domains shown, mouse immunization; mouse IgG2a/kappa) VH: EVQLQQSGAELVKPGASVKLSCKASGYTFTSYWLHWVKQRPGQGLEWIGEIDPSDSYTYYNQKFKGKATLTVDKSSSTAYMQLSSLTSEDSAVYYCARSPYDYDWGAYWGQGTSVTVSS VL: DIVMTQSPSSMSVSLGDTVSITCHASQGISSNIGWLQQKPGKSFKGLIYHGTNLEDEVPSRFSGSGSGADYSLTIGSLESEDFADYYCVQYAQFPWTFGAGTKLEMKR | 8.14 nM | 0.000572 s⁻¹ | 70300 M⁻¹ s⁻¹ | 8.06 nM | 0.000587 s⁻¹ | 72800 M⁻¹ s⁻¹ | – | – | – | no binding (tested: 500 nM) |
| I23RB82 (antibody, mouse IgG2a, kappa, V domains shown, mouse immunization; mouse IgG2a/kappa) VH: QVQLKESGPGLVAPSQSLSITCTVSGFSLTNYALHWFRQSPGKGLEWLGVIWSDGSTDYNSPFISRLSISKDNSKSQVFFKMNSLQADDTAIYYCARSRSNYGRWYFDVWGAGTTLTVSS VL: QIVLSQSHKFMSTSVGDRVSITCKASQDVSTAVAWYQQKPGQSPKLLIYSAFYRYTGVPDRFTGSGSGTDFTFTISSVQAEDLAVYYCQQHYSTPYTFGGGTKLEIKR | 34.4 nM | 0.0136 s⁻¹ | 397000 M⁻¹ s⁻¹ | 4.67 nM | 0.00247 s⁻¹ | 529000 M⁻¹ s⁻¹ | – | – | – | no binding (tested: 500 nM) |
| I23RB61 (antibody, mouse IgG2a, kappa, V domains shown, mouse immunization; mouse IgG2a/kappa) VH: DVQLQESGAELVKPGASVKLSCKSFDYTFTSFDINWMKQRPGQGLEWIGWIFPGSGTTNYNEKFKGKATLTADKSSSTAYMHLTSLTSEDSAVYFCARRLTGTRYFDVWGTGTTLTVSS VL: DIQMTQSHKFLSTSVGDRITITCKASQDVITAVAWYQQKSGQSPKLLIYWASTRHTGVPDRFTGSGSGTDYTLTISNVQAEDLALYYCQQHYTTPPTFGAGTKLELKR | 5.5 nM | 0.00195 s⁻¹ | 355000 M⁻¹ s⁻¹ | 22.1 nM | 0.0101 s⁻¹ | 459000 M⁻¹ s⁻¹ | – | – | – | no binding (tested: 500 nM) |
| I23RB60 (antibody, mouse IgG2a, kappa, V domains shown, mouse immunization; mouse IgG2a/kappa) VH: DVQLQESGPELVKPGDSVKMSCEASGYTFTDYYIDWVKQSHGKSLEWIGYIYPNNGGISFNQKFEGKATLTVDKSSSTAYMELHSLTSEDSAVYYCAREKLRGRDYWGQGTTLTVSS VL: DIVMTQSTSSLSASLGDRVTISCRASQDIRNNLNWYQQKPDGTVKLLIFYSSRLHSGVPSRFSGSGSGTDYSLTISNLEQEDIATYFCQQGHTLPWTFGAGTKLELKR | 0.466 nM | 0.000169 s⁻¹ | 362000 M⁻¹ s⁻¹ | 0.731 nM | 0.000218 s⁻¹ | 298000 M⁻¹ s⁻¹ | – | – | – | no binding (tested: 500 nM) |
